What was measured:
[1] = molecular target: triple-helical peptide II-27-C (II-27-derived sequence with GVOGEA within (GPP)5 hosts) (O in the letters is hydroxyproline); test: real-time label-free cell adhesion
[2] = molecular target: triple-helical peptide II-27-B (II-27-derived sequence with GVOGEA within (GPP)5 hosts) (O in the letters is hydroxyproline); test: real-time label-free cell adhesion

- adhesion relative to that on II-27 [1]: ~40%
- adhesion relative to that on II-27 [2]: ~40%
B1: integrin α1β1 on rat pheochromocytoma PC12 cells (receptor, rat (endogenous in PC12))
chain 1: FNVDVKNSMSFSGPVEDMFGYTVQQYENEEGKWVLIGSPLVGQPKARTGDVYKCPVGRERAMPCVKLDLPVNTSIPNVTEIKENMTFGSTLVTNPNGGFLACGPLYAYRCGHLHYTTGICSDVSPTFQVVNSFAPVQECSTQLDIVIVLDGSNSIYPWESVIAFLNDLLKRMDIGPKQTQVGIVQYGENVTHEFNLNKYSSTEEVLVAANKIGRQGGLQTMTALGIDTARKEAFTEARGARRGVKKVMVIVTDGESHDNYRLKQVIQDCEDENIQRFSIAILGHYNRGNLSTEKFVEEIKSIASEPTEKHFFNVSDELALVTIVKALGERIFALEATADQSAASFEMEMSQTGFSAHYSQDWVMLGAVGAYDWNGTVVMQKANQMVIPHNTTFQTEPAKMNEPLASYLGYTVNSATIPGDVLYIAGQPRYNHTGQVVIYKMEDGNINILQTLGGEQIGSYFGSVLTTIDIDKDSYTDLLLVGAPMYMGTEKEEQGKVYVYAVNQTRFEYQMSLEPIRQTCCSSLKDNSCTKENKNEPCGARFGTAIAAVKDLNVDGFNDVVIGAPLEDDHAGAVYIYHGSGKTIREAYAQRIPSGGDGKTLKFFGQSIHGEMDLNGDGLTDVTIGGLGGAALFWARDVAVVKVTMNFEPNKVNIQKKNCRVEGKETVCINATMCFHVKLKSKEDSIYEADLQYRVTLDSLRQISRSFFSGTQERKIQRNITVRESECIRHSFYMLDKHDFQDSVRVTLDFNLTDPENGPVLDDALPNSVHEHIPFAKDCGNKERCISDLTLNVSTTEKSLLIVKSQHDKFNVSLTVKNKGDSAYNTRTVVQHSPNLIFSGIEEIQKDSCESNQNITCRVGYPFLRAGETVTFKIIFQFNTSHLSENAIIHLSATSDSEEPLESLNDNEVNISIPVKYEVGLQFYSSASEHHISVAANETIPEFINSTEDIGNEINVFYTIRKRGHFPMPELQLSISFPNLTADGYPVLYPIGWSSSDNVNCRPRSLEDPFGINSGKKMTISKSEVLKRGTIQDCSSTCGVATITCSLLPSDLSQVNVSLLLWKPTFIRAHFSSLNLTLRGELKSENSSLTLSSSNRKRELAIQISKDGLPGRVPLWVILLSAFAGLLLLMLLILALWKIGFFKRPLKKKMEK
chain 2: QTDKNRCLKANAKSCGECIQAGPNCGWCTNTTFLQEGMPTSARCDDLEALKKKGCHPSDIENPRGSQTIKKNKNVTNRSKGMAEKLRPEDITQIQPQQLLLKLRSGEPQKFTLKFKRAEDYPIDLYYLMDLSYSMKDDLENVKSLGTDLMNEMRRITSDFRIGFGSFVEKTVMPYISTTPAKLRNPCTSEQNCTSPFSYKNVLSLTDRGEFFNELVGQQRISGNLDSPEGGFDAIMQVAVCGSLIGWRNVTRLLVFSTDAGFHFAGDGKLGGIVLPNDGQCHLENNVYTMSHYYDYPSIAHLVQKLSENNIQTIFAVTEEFQPVYKELKNLIPKSAVGTLSGNSSNVIQLIIDAYNSLSSEVILENSKLPDGVTINYKSYCKNGVNGTGENGRKCSNISIGDEVQFEISITANKCPNKESENQLKLNPLGFTEEVEVVLQFICKCNCQSHGIPASPKCHEGNGTFECGACRCNEGRVGRHCECSTDEVNSEDMDAYCRKENSSEICSNNGECVCGQCVCRKRENTNEIYSGKFCECDNFNCDRSNGLICGGNGVCRCRVCECYPNYTGSACDCSLDTVPCVATNGQICNGRGICECGACKCTDPKFQGPTCETCQTCLGVCAEHKECVQCRAFNKGEKKDTCAQECSHFNLTKVESREKLPQPVQVDPVTHCKEKDIDDCWFYFTYSVNSKGEAHVHVVETPDCPTGPDIIPIVAGVVAGIVLIGLALLLIWKLLMIIHDRREFAKFEKEKMNAKWDTGENPIYKSAVTTVVNPKYEGK

Source: paper PMC3406685 (The Journal of Biological Chemistry, 2012)
